Laboratory results as given in US12565520B2, “Chemically-stabilized allosteric modulators of leucine-rich repeat kinase 2 (LRRK2)” (UNIVERSITY OF GEORGIA RESEARCH FOUNDATION, INC., priority 2020, dated 2026).
Values belong to the binder of their own block, whether it stands above or below them. Positions of bridges follow the written chain, without caps; N, C: chain ends. Non-standard residues stand in square brackets, D forms with d. Primed or numbered codes have the meaning given here. PEG3″ = N-terminal PEG3 linker; FAM″ = 5,6-carboxyfluorescein; S5 = C=CCCC[C@](C)(N)C(=O)O; Nle = CCCC[C@H](N)C(=O)O

Columns and labels:
[1] = molecular target: T1, MBP-tagged RocCOR LRRK2 protein (human, UniProt Q5S007 1293-1840, limits assumed); assay: fluorescence polarization, 10 nM FAM-labeled peptide
T1 construct: domain: RocCOR; Purified from E. coli; FP done in the presence of GTP and MgCl2; also called His6-MBP-tagged RocCOR; not shown: N-terminal His6-MBP tag
T1 sequence (looked up): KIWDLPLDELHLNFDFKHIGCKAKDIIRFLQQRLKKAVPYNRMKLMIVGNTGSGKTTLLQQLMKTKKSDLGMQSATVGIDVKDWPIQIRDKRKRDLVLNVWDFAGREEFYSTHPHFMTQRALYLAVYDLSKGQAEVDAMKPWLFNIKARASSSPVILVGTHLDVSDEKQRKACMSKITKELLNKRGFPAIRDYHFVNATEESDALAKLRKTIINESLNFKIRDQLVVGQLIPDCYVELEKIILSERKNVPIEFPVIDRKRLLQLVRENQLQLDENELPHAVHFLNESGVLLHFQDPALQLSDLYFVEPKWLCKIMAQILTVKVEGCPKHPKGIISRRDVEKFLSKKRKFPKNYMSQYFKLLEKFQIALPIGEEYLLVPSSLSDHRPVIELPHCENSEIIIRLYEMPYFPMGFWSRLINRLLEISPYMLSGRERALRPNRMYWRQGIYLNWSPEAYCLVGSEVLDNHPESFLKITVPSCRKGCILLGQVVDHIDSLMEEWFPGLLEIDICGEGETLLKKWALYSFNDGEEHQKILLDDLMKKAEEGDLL

MBP-tagged CORB [2] = molecular target: T2, MBP-tagged CORB (human, UniProt Q5S007 1672-1840); assay: as above
T2 construct: range 1672-1840; Purified from E. coli BL21(DE3); also called C-terminal part of the COR domain; His6-MBP-tagged COR-B; not shown: N-terminal His6-MBP tag (pDEST-566)

MBP-tagged CORB [3] = molecular target: T2, MBP-tagged CORB; assay: fluorescence polarization, 10 nM FAM-labeled peptide, MBP-CORB titrated
Experimental: Fluorescence Polarization (FP) Assays. […] Each FAM-labeled peptide was plated at a final in-well concentration of 10 nM in 384-well microtiter plates. 1:2 dilutions of the protein were then performed from a concentration range of 5 μM to 1 nM. For each peptide: protein interaction, a range of at least 10 protein concentrations was examined, and each concentration was performed in triplicate. The assay was performed in FP buffer (20 mM MOPS pH 7, 150 mM NaCl, and 0.005% CHAPS) at room temperature. The peptide:protein mixture was incubated at room temperature for 2 hours with readings taken every 30 minutes. The final readings were obtained at 2 hours.
The binding affinities of these two peptides towards LRRK2 was measured using fluorescence polarization (FP). Two MBP-tagged protein constructs, CORB and RocCOR, were purified and plated in concentrations ranging from 5 μM to 1 nM along with 10 nM FAM-labeled peptide, 2 mM GTP and 10 mM MgCl_2.

B1: FAM-labeled LRIP4 scramble (peptide)
peptide: {FAM″-PEG3″}-Q[Nle]DKAESKNKERKLC[S5]TIK[S5]-NH2
modifications: staple 16-20
notes: Scrambled control of LRIP4; also called scrambled peptide control
binding result [1]: no binding (tested: protein 5 µM to 1 nM)

B2: FAM-labeled LCIP1 scramble (peptide)
peptide: {FAM″-PEG3″}-GKWEK[S5]GEL[S5]KL-NH2
modifications: staple 6-10
notes: Scrambled control of LCIP1; also called scrambled peptide control
binding result (MBP-tagged CORB [2]): no binding (tested: protein 5 µM to 1 nM)

Kd (MBP-tagged CORB [3]): 1000 nM
Binder: {FAM″-PEG3″}-KGEGE[S5]LLK[S5]WK-NH2 (staple 6-10, 16) [FAM-labeled LCIP1]
